Measurements from the supplement of paper PMC10724198.
± gives the standard deviation of the averaged measurements.

What was measured:
Saccharomyces cerevisiae [1] = assay: protein stability index of tFT-peptide fusion (C-terminal peptide) (PSI (0-1 scale)); higher = more stable (slower turnover)
Procedure: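 MPS profiling in S. cerevisiae of the tFT-X12 degron library: putative degron peptides plus stable controls, 12 aa, fused to the C-terminus of a sfGFP-mCherry timer. Cells are FACS-sorted into 8 mCherry/sfGFP bins and deep-sequenced. PSI runs from 0 (unstable) to 1 (stable). Backgrounds are wild type, das1Δ and doa10Δ at 30 °C, and wild type, das1Δ, cdc34-1 and cdc53-1 at 37 °C; 2-3 technical replicates each.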

Saccharomyces cerevisiae [2] = assay: as above; details: genetic background: wild type; temperature: 30 C
[3] = genetic background: cdc34-1, temperature: 37 C
[4] = genetic background: cdc53-1, temperature: 37 C
[5] = genetic background: das1 deletion, temperature: 30 C
[6] = genetic background: das1 deletion, temperature: 37 C
[7] = genetic background: doa10 deletion, temperature: 30 C
[8] = genetic background: wild type, temperature: 30 C
[9] = genetic background: wild type, temperature: 37 C
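Note: PSI is a weighted mean of sequencing reads over stability bins, variants kept only with over 10 reads, mCherry proximal and sfGFP distal, peptide attached via GGGS linker.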

| Sequence | protein stability index (Saccharomyces cerevisiae [1]; [3]) | protein stability index (Saccharomyces cerevisiae [1]; [4]) | protein stability index (Saccharomyces cerevisiae [1]; [5]) | protein stability index (Saccharomyces cerevisiae [1]; [6]) | protein stability index (Saccharomyces cerevisiae [1]; [7]) | protein stability index (Saccharomyces cerevisiae [1]; [8]) | protein stability index (Saccharomyces cerevisiae [1]; [9]) | protein stability index (Saccharomyces cerevisiae [2]) |
| --- | --- | --- | --- | --- | --- | --- | --- | --- |
| ERRWVLVAWRFK | 0.555 ± 0.026 | 0.616 ± 0.013 | 0.442 ± 0.031 | 0.619 ± 0.032 | 0.416 ± 0.0077 | 0.442 ± 0.03 | 0.6 ± 0.017 | 0.494 ± 0.02 |
| ESSRNILLWRTI | 0.69 ± 0.041 | 0.7554 ± 0.00093 | 0.641 ± 0.048 | 0.755 ± 0.032 | 0.247 ± 0.046 | 0.264 ± 0.037 | 0.565 ± 0.018 | 0.443 ± 0.073 |
| ETYCLPRVASGI | 0.695 ± 0.021 | 0.733 ± 0.026 | 0.655 ± 0.013 | 0.733 ± 0.029 | 0.666 ± 0.02 | 0.665 ± 0.021 | 0.708 ± 0.02 | 0.733 ± 0.0075 |
| EWAILSLGVMCV | 0.0657 ± 0.03 | 0.118 ± 0.085 | 0.193 ± 0.013 | 0.2 ± 0.0075 | 0.158 ± 0.0049 | 0.184 ± 0.032 | 0.173 ± 0.011 | 0.225 ± 0.014 |
| EYGLLLTLLAYY | 0.4526 ± 0.0018 | 0.508 ± 0.047 | 0.351 ± 0.026 | 0.549 ± 0.0092 | 0.2986 ± 0.0026 | 0.324 ± 0.021 | 0.5128 ± 0.0022 | 0.362 ± 0.044 |
| FCDFLFVFPLFS | 0.562 ± 0.016 | 0.596 ± 0.013 | 0.507 ± 0.019 | 0.6583 ± 0.0028 | 0.589 ± 0.011 | 0.479 ± 0.024 | 0.6321 ± 0.0062 | 0.515 ± 0.22 |
| FCLGFRFFVFFL | 0.26 ± 0.011 | 0.291 ± 0.018 | 0.271 ± 0.027 | 0.408 ± 0.013 | 0.208 ± 0.012 | 0.163 ± 0.022 | 0.288 ± 0.021 | 0.218 ± 0.032 |
| FCRLTFCFFAFL | 0.573 ± 0.051 | 0.646 ± 0.0074 | 0.499 ± 0.019 | 0.641 ± 0.0092 | 0.446 ± 0.017 | 0.438 ± 0.014 | 0.5586 ± 0.00064 | 0.47 ± 0.035 |
| FCTSSRLLYCSA | 0.177 ± 0.0029 | 0.222 ± 0.0037 | 0.206 ± 0.026 | 0.3192 ± 0.00046 | 0.175 ± 0.0018 | 0.202 ± 0.026 | 0.278 ± 0.0096 | 0.302 ± 0.01 |
| FCTVYFVCVWEM | 0.1957 ± 0.0014 | 0.273 ± 0.022 | 0.209 ± 0.043 | 0.393 ± 0.033 | 0.177 ± 0.03 | 0.212 ± 0.015 | 0.362 ± 0.014 | 0.334 ± 0.055 |
| FECLLFVNLLVI | 0.274 ± 0.0029 | 0.345 ± 0.014 | 0.24 ± 0.042 | 0.425 ± 0.018 | 0.153 ± 0.014 | 0.188 ± 0.03 | 0.349 ± 0.012 | 0.288 ± 0.02 |
| FFCCRLPCLFVL | 0.369 ± 0.016 | 0.407 ± 0.0051 | 0.363 ± 0.027 | 0.4824 ± 0.0016 | 0.174 ± 0.0061 | 0.174 ± 0.011 | 0.194 ± 0.0073 | 0.252 ± 0.022 |
| FFCLFCLSCWVL | 0.403 ± 0.023 | 0.422 ± 0.02 | 0.331 ± 0.015 | 0.444 ± 0.0054 | 0.323 ± 0.011 | 0.312 ± 0.04 | 0.3863 ± 0.0017 | 0.436 ± 0.054 |
| FFCLVEVFVGVF | 0.0707 ± 0.051 | 0.108 ± 0.023 | 0.115 ± 0.044 | 0.177 ± 0.0027 | 0.089 ± 0.018 | 0.0928 ± 0.033 | 0.107 ± 0.014 | 0.2798 ± 0.0012 |
| FFCVLGLSFFCL | 0.609 ± 0.065 | 0.618 ± 0.016 | 0.568 ± 0.021 | 0.58942 ± 0.00014 | 0.554 ± 0.039 | 0.549 ± 0.021 | 0.566 ± 0.016 | 0.542 ± 0.17 |
| FFLFLFFFLRGS | 0.4853 ± 0.0033 | 0.53967 ± 0.00022 | 0.405 ± 0.025 | 0.533 ± 0.035 | 0.419 ± 0.03 | 0.402 ± 0.035 | 0.511 ± 0.021 | 0.467 ± 0.023 |
| FFRVCNALLLVC | 0.0637 ± 0.058 | 0.0334 ± 0.0086 | 0.148 ± 0.026 | 0.152 ± 0.025 | 0.0531 ± 0.0033 | 0.0394 ± 0.01 | 0.0662 ± 0.015 | 0.0759 ± 0.035 |
| FFSFFLSFRLWF | 0.365 ± 0.061 | 0.298 ± 0.024 | 0.433 ± 0.038 | 0.456 ± 0.012 | 0.596 ± 0.04 | 0.429 ± 0.038 | 0.434 ± 0.058 | 0.449 ± 0.11 |
| FFTLSTVKLLRV | 0.497 ± 0.025 | 0.521 ± 0.02 | 0.427 ± 0.022 | 0.552 ± 0.0087 | 0.385 ± 0.0046 | 0.412 ± 0.027 | 0.5379 ± 0.0018 | 0.508 ± 0.044 |
| FFVFVVFFCFGL | 0.321 ± 0.008 | 0.438 ± 0.035 | 0.303 ± 0.023 | 0.444 ± 0.0091 | 0.2809 ± 0.0014 | 0.303 ± 0.0093 | 0.41 ± 0.014 | 0.383 ± 0.047 |

| Sequence | protein stability index (Saccharomyces cerevisiae [1]; [3]) | protein stability index (Saccharomyces cerevisiae [1]; [4]) | protein stability index (Saccharomyces cerevisiae [1]; [5]) | protein stability index (Saccharomyces cerevisiae [1]; [6]) | protein stability index (Saccharomyces cerevisiae [1]; [7]) | protein stability index (Saccharomyces cerevisiae [1]; [8]) | protein stability index (Saccharomyces cerevisiae [1]; [9]) | protein stability index (Saccharomyces cerevisiae [2]) |
| --- | --- | --- | --- | --- | --- | --- | --- | --- |
| FGLLLVLASALG | 0.356 ± 0.034 | 0.438 ± 0.026 | 0.318 ± 0.022 | 0.465 ± 0.018 | 0.284 ± 0.024 | 0.307 ± 0.019 | 0.4411 ± 0.0012 | 0.3828 ± 0.0021 |
| FGLMCFIFYVLV | 0.2 ± 0.018 | 0.331 ± 0.03 | 0.236 ± 0.021 | 0.3756 ± 0.0017 | 0.223 ± 0.016 | 0.225 ± 0.018 | 0.337 ± 0.0078 | 0.307 ± 0.057 |
| FHFLFLFSLVSV | 0.294 ± 0.074 | 0.316 ± 0.03 | 0.269 ± 0.038 | 0.412 ± 0.017 | 0.293 ± 0.0034 | 0.279 ± 0.012 | 0.37513 ± 0.00036 | 0.416 ± 0.017 |
| FILLHLLGTIRS | 0.433 ± 0.02 | 0.487 ± 0.0072 | 0.372 ± 0.031 | 0.502 ± 0.023 | 0.337 ± 0.016 | 0.352 ± 0.026 | 0.4948 ± 0.0018 | 0.438 ± 0.016 |
| FIMHRIFMALVI | 0.386 ± 0.055 | 0.415 ± 0.03 | 0.381 ± 0.042 | 0.4786 ± 0.0006 | 0.29 ± 0.017 | 0.253 ± 0.025 | 0.359 ± 0.0092 | 0.341 ± 0.14 |
| FLFCMIFIFRCF | 0.216 ± 0.011 | 0.196 ± 0.026 | 0.233 ± 0.031 | 0.339 ± 0.025 | 0.203 ± 0.025 | 0.165 ± 0.015 | 0.252 ± 0.022 | 0.276 ± 0.1 |
| FLFLFIFYFFCC | 0.269 ± 0.046 | 0.367 ± 0.0077 | 0.327 ± 0.024 | 0.476 ± 0.02 | 0.315 ± 0.0036 | 0.314 ± 0.032 | 0.401 ± 0.06 | 0.389 ± 0.083 |
| FLFLSPLALHVS | 0.444 ± 0.03 | 0.494 ± 0.014 | 0.412 ± 0.022 | 0.513 ± 0.014 | 0.177 ± 0.0097 | 0.212 ± 0.024 | 0.256 ± 0.011 | 0.304 ± 0.01 |
| FLIVLLVIFFGF | 0.275 ± 0.0072 | 0.387 ± 0.019 | 0.276 ± 0.023 | 0.367 ± 0.023 | 0.275 ± 0.018 | 0.269 ± 0.04 | 0.357 ± 0.018 | 0.324 ± 0.006 |
| FLLASSRRICCS | 0.458 ± 0.0088 | 0.486 ± 0.029 | 0.365 ± 0.025 | 0.5347 ± 0.001 | 0.249 ± 0.015 | 0.269 ± 0.028 | 0.47 ± 0.013 | 0.391 ± 0.0082 |
| FLLCGVFFFFFV | 0.323 ± 0.0043 | 0.405 ± 0.046 | 0.288 ± 0.025 | 0.3092 ± 0.00041 | 0.344 ± 0.012 | 0.245 ± 0.032 | 0.319 ± 0.013 | 0.4286 ± 0.0014 |
| FLLGWFLFFVCS | 0.401 ± 0.015 | 0.422 ± 0.019 | 0.32 ± 0.027 | 0.4361 ± 0.0024 | 0.289 ± 0.012 | 0.283 ± 0.027 | 0.393 ± 0.013 | 0.406 ± 0.043 |
| FLLYSILLAFLL | 0.524 ± 0.034 | 0.503 ± 0.02 | 0.415 ± 0.033 | 0.546 ± 0.0071 | 0.37 ± 0.012 | 0.345 ± 0.033 | 0.492 ± 0.037 | 0.436 ± 0.011 |
| FLMLFVVLWLFL | 0.427 ± 0.026 | 0.46 ± 0.0076 | 0.394 ± 0.028 | 0.522 ± 0.071 | 0.389 ± 0.014 | 0.369 ± 0.04 | 0.448 ± 0.0072 | 0.366 ± 0.076 |
| FLPFRVFNFSLV | 0.659 ± 0.031 | 0.713 ± 0.015 | 0.653 ± 0.035 | 0.725 ± 0.015 | 0.22 ± 0.011 | 0.229 ± 0.026 | 0.441 ± 0.05 | 0.38 ± 0.063 |
| FLSFARSSCLWF | 0.678 ± 0.028 | 0.7423 ± 0.0011 | 0.657 ± 0.015 | 0.739 ± 0.014 | 0.676 ± 0.03 | 0.666 ± 0.0085 | 0.7115 ± 0.00098 | 0.748 ± 0.016 |
| FMSAGVSWIFFV | 0.579 ± 0.021 | 0.7146 ± 0.0024 | 0.601 ± 0.021 | 0.7503 ± 0.0043 | 0.105 ± 0.013 | 0.13 ± 0.012 | 0.129 ± 0.011 | 0.343 ± 0.047 |
| FNLWCRQLASIE | 0.181 ± 0.034 | 0.218 ± 0.0042 | 0.276 ± 0.0061 | 0.187 ± 0.0035 | 0.29904 ± 0.00019 | 0.284 ± 0.012 | 0.178 ± 0.0067 | 0.327 ± 0.094 |
| FPLFCRIHLLCS | 0.138 ± 0.0083 | 0.157 ± 0.0044 | 0.2 ± 0.017 | 0.275 ± 0.0037 | 0.059 ± 0.02 | 0.0768 ± 0.011 | 0.0529 ± 0.0047 | 0.107 ± 0.0096 |
